According to paper doi:10.1101/2021.08.24.457482 (bioRxiv, 2021):

B1: Sema3A fused in frame with alkaline phosphatase (sema3A-AP) (ligand)
chain: NYQNGKNNVPRLKLSYKEMLESNNVITFNGLANSSSYHTFLLDEERSRLYVGAKDHIFSFDLVNIKDFQKIVWPVSYTRRDECKWAGKDILKECANFIKVLKAYNQTHLYACGTGAFHPICTYIEIGHHPEDNIFKLENSHFENGRGKSPYDPKLLTASLLIDGELYSGTAADFMGRDFAIFRTLGHHHPIRTEQHDSRWLNDPKFISAHLISESDNPEDDKVYFFFRENAIDGEHSGKATHARIGQICKNDFGGHRSLVNKWTTFLKARLICSVPGPNGIDTHFDELQDVFLMNFKDPKNPVVYGVFTTSSNIFKGSAVCMYSMSDVRRVFLGPYAHRDGPNYQWVPYQGRVPYPRPGTCPSKTFGGFDSTKDLPDDVITFARSHPAMYNPVFPMNNRPIVIKTDVNYQFTQIVVDRVDAEDGQYDVMFIGTDVGTVLKVVSIPKETWYDLEEVLLEEMTVFREPTAISAMELSTKQQQLYIGSTAGVAQLPLHRCDIYGKACAECCLARDPYCAWDGSACSRYFPTAKRRTRRQDIRNGDPLTHCSDLHHDNHHGHSPEERIIYGVENSSTFLECSPKSQRALVYWQFQRRNEERKEEIRVDDHIIRTDQGLLLRSLQQKDSGNYLCHAVEHGFIQTLLKVTLEVIDTEHLEELLHKDDDGDGSKTKEMSNSMTPSQKVWYRDFMQLINHPNLNTMDEFCEQVWKRDRKQRRQRPGHTPGNSNKWKHLQENKKGRNRRTHEFERAPRSV
B2: modified truncated sema3A (T-sema3A) (ligand)
chain: NYQNGKNNVPRLKLSYKEMLESNNVITFNGLANSSSYHTFLLDEERSRLYVGAKDHIFSFDLVNIKDFQKIVWPVSYTRRDECKWAGKDILKECANFIKVLKAYNQTHLYACGTGAFHPICTYIEIGHHPEDNIFKLENSHFENGRGKSPYDPKLLTASLLIDGELYSGTAADFMGRDFAIFRTLGHHHPIRTEQHDSRWLNDPKFISAHLISESDNPEDDKVYFFFRENAIDGEHCGKATHARIGQICKNDFGGHRSLVNKWTTFLKARLICSVPGPNGIDTHFDELQDVFLMNFKDPKNPVVYGVFTTSSNIFKGSAVCMYSMSDVRRVFLGPYAHRDGPNYQWVPYQGRVPYPRPGTCPSKTFGGFDSTKDLPDDVITFARSHPAMYNPVFPMNNRPIVIKTDVNYQFTQIVVDRVDAEDGQYDVMFIGTDVGTVLKVVSIPKETWYDLEEVLLEEMTVFREPTAISAMELSTKQQQLYIGSTAGVAQLPLHR
B3: CD72 fused with a V5 epitope tag, expressed in U87MG-ΔNRP-1-CD72+ cells (receptor)
chain: MAEAITYADLRFVKAPLKKSISSRLGQDPGADDDGEITYENVQVPAVLGVPSSLASSVLGDKAAVKSEQPTASWRAVTSPAVGRILPCRTTCLRYLLLGLLLTCLLLGVTAICLGVRYLQVSQQLQQTNRVLEVTNSSLRQQLRLKITQLGQSAEDLQGSRRELAQSQEALQVEQRAHQAAEGQLQACQADRQKTKETLQSEEQQRRALEQKLSNMENRLKPFFTCGSADTCCPSGWIMHQKSCFYISLTSKNWQESQKQCETLSSKLATFSEIYPQSHSYYFLNSLLPNGGSGNSYWTGLSSNKDWKLTDDTQRTRTYAQSSKCNKVHKTWSWWTLESESCRSSLPYICEMTAFRFPD

Columns and labels:
[1] = molecular target: neuropilin-1 (NRP-1) on parental U87MG cells (human (endogenous in U87MG), UniProt O14786 22-923); test: alkaline phosphatase fusion binding to cells
[2] = molecular target: the molecule itself; test: SDS-PAGE with and without reducing agent, western blot
[3] = molecular target: B1; test: alkaline phosphatase fusion binding to cells

Sequence of neuropilin-1 (NRP-1) on parental U87MG cells (O14786 22-923): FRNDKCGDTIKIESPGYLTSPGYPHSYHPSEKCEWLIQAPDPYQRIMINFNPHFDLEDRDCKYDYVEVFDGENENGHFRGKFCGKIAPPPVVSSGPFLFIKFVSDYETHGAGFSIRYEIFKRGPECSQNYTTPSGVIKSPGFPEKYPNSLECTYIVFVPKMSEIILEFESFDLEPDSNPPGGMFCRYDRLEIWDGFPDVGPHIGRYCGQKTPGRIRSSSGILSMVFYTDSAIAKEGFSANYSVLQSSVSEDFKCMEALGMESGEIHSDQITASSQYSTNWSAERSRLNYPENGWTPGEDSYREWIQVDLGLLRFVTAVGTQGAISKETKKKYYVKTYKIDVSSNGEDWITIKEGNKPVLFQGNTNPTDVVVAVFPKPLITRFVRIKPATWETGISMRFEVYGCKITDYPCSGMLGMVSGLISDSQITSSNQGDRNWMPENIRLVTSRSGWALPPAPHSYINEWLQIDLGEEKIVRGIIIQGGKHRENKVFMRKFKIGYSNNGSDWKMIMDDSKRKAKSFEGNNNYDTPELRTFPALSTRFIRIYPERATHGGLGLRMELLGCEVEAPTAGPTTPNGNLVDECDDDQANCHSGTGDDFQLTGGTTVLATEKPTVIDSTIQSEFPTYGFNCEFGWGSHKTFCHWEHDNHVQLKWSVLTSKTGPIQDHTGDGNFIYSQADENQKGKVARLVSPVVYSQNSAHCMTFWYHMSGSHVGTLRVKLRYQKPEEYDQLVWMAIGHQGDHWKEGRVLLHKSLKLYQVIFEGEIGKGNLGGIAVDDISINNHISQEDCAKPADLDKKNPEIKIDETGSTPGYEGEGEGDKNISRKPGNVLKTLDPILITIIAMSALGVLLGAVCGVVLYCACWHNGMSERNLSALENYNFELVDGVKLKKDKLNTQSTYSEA

## B1
[1]
  Kd: ~4.73 nM

## B2
[2]
  stoichiometry N: 2

## B3
[3]
  Kd: ~7.62 nM
